The results in this text go back to a protein production outcome set (Wang et al. 2014).

The series can be described thus: label from the status in PepcDB records.

With “MFTRRGDQGETDLANRARVGKDSPVVEVQGTIDELNSFIGYALVLSRWDDIRNDLFRIQNDLFVLGEDVSTGGKGRTVTREMIDYLEARVKEMKAEIGKIELFVVPGGSIESASLHMARAVSRRLERRIVAASKLTEINKNVLIYANRLSSILFMHALLSNKRLNIPEKIWSIHRVS”, the protein production entry is “not failed”.

As to “MFVDRIVLSFRGAGLERANTCLRKGQRLRKACSHVFRPLCSSDLPVNLPTDLETKRVMKPPLAERESIWSYPRPPRVEPNTRHLRVVHNQVTIAETRRGYRVLEYSHPPSYYIPLDDIDLQYVMVSSKVRSTFCEFKGEATYYDVEVGWEVSEGAAWSYDFPTRAYRMLKDHIAFYPAKVDACWVDEYRVRPEPRSFYGGWVTPLVKGVYPEEDVEDDEDSSGGDGKDSATQ”, the protein production entry is “not failed”.

With “MFVFIPLFTIFILLAGGYFAKRIGVLKQKQARTFLDFAIIFALPCLIFDKAYHLNFDFSLIIFIFIGLFSCILAAFFAILIGKVFHFSKVTLVSMFLLSCFGNTIFVGMPIVAGIFNDPQFSAEVIFYDALATTLPISLFGPFILSLGNGEKVSLLANVKKILSFPPFLALLFGFLCKLITLPEFIFSPIRLFGASATPVALFAIGLGLGFMAIKTSYKPTIVVIFTKMILAPLFFVFCLKIFNLELKDSTIVAIIESAAPTMTLAGAMVMKAKLDSNLAVSAVAFGVLFAFVSMPILIWTLL”, the protein production entry was “failed”.

Consider “MFVLKNFKIVFSYFPIVLQYILNVALICLGVVLSVFLMKEVIQFMQELKLDGNESSYHLIDSIVVFFLYFEFIVMIIKYFQMNFHFPLRYFIYIGITAIVRLIIIDHDSPLDLLLYACAIFVLISALFIANSKMMRWDLE”, for which the protein production entry is reported as “failed”.

Take “MFVVAVANTKGGCGKTTLATHLAASFACRGYATGLADLDRQKSALGWLKRRPEGAAPIQGINLAREEDIPEGIERLVVDAAAAMDKDVVKDIVRRADLVVVPVLPGVFDEDGTARFVGHLESLKSIRKNRRDVAFVANRVRLNTRALTRLGGFLEELSFPVIARLRDTQHYTAAAAEGLSLFDLPGGRAADYRAEWTPLLDFIEIRVRGLEHHHHHH”: the protein production entry is “not failed”.

On to “MFYPDPFDVIIIGGGHAGTEAAMAAARMGQQTLLLTHNIDTLGQMSCNPAIGGIGKGHLVKEVDALGGLMAKAIDQAGIQFRILNASKGPAVRATRAQADRVLYRQAVRTALENQPNLMIFQQAVEDLIVENDRVVGAVTQMGLKFRAKAVVLTVGTFLDGKIHIGLDNYSGGRAGDPPSIPLSRRLRELPLRVGRLKTGTPPRIDARTIDFSVLAQQHGDNPMPVFSFMGNASQHPQQVPCYITHTNEKTHDVIRSNLDRSPMYAGVIEGVGPRYCPSIEDKVMRFADRNQHQIFLEPEGLTSNEIYPNGISTSLPFDVQMQIVRSMQGMENAKIVRPGYAIEYDFFDPRDLKPTLESKFIQGLFFAGQINGTTGYEEAAAQGLLAGLNAARLSDDKEGWAPARSQAYLGVLVDDLCTLGTKEPYRMFTSRAEYRLMLREDNADLRLTEIGRELGLVDDERWARFNEKLENIERERQRLKSTWVTPSAEAAAEVNAHLTAPLSREASGEDLLRRPEMTYEKLTTLTPFAPALTDEQAAEQVEIQVKYEGYIARQQDEIEKQLRNENTLLPATLDYRQVSGLSNEVIAKLNDHKPASIGQASRISGVTPAAISILLVWLKKQGMLRRSA”, for which the protein production entry is recorded as “not failed”.

Turning to “MFYRLLFASLWYILPAYVANASACIFGGGTPVDLGKNFIDGRRLIGNGVTYRGCIFGILCGTLVGLIQGILVDFNIFNSLDFYGTVLDHVILAFFLSVGAIVGDAVGSFIKRRLNIERGKPAPLLDQLDFVIGALAFGYIVAPIPYEMIIIICLFTVFVHLLGNIIAYKLGIKDVWW”, the protein production result is recorded as “failed”.

For the sequence “MGAAKNIWALANAEDAANDAEQIPYSSFVVDTSLPLPLMIPRIIELCKDLFKNWGELDDSLFSVERVSGGITNLLLKVSVKEDTNKEVSVTVRLYGPNTEYVINREREILAIKYLSAAGFGAKLLGGFGNGMVQSFINARTLEPSDMREPKIAAQIARELGKFHKVDIPGSKEPQLWVDILKFYEKASTLTFEEPDKQKLFETISFEELHKEIIELREFTGLLNAPVVFAHNDLLSGNFMLNDEEEKLYLIDFEYGSYNYRGFDIGNHFNEYAGYDCDYSLYPSKEEQYHFIKHYLQPDKPDEVSIAEVESVFVETDAYKLASHLYWAIWAIIQARMSPIEFEYLGYFFLRYNEYKKQKPLTFSLVTSHLSASL”, the protein production result is given as “failed”.

Take “MGAAVGTSEAIQMVNQRQAVWVDVRPTEQFQAGHIAQARSLPAADLEKKAGALPKNKPLIVVCEQGRDAARIAARLRSQGFAEVSVLEGGMRAWFAAGLPVTQKGLEHHHHHH”: the protein production result was “failed”.

As for “MGAFNRRNKRVNNGNVTHLRPFRRNQLRNDNAYDPDEHDLEYVRPRRRGIYLLPNAFTTAALFAGFFAIVQAMNMRFDVAAIAIFAAMVLDGMDGRVARITNTQSAFGEQYDSLSDMTSFGVAPALVMYEWILHDLGKWGWIAAFVYCTCAALRLARFNANIGVVDKRFFQGLPSPAAAALVAGFVWLAIDNKLPVKELWMPWVAFGITLYAGLSMVSNAPFYSGKALDVRYRVPFGMMVLVLVLFVVVSSDPPVALFGLFVAYAISGYLLWAWRTLHGQRGGVDKSRAPGNGSGGN”, the protein production result is on record as “failed”.

Take “MGAGQTPHPQLIWPALLKQQGCNELLPLRTNDDWQRFCADSKHLLQYGDKLVDSNFHCFVLEEDAHWHPAAPLPPEGLNDLIRAHCATLGHCCTSKMHLHSVMDAIDFLNALEG”: the protein production entry is listed as “not failed”.

With “MGALAAAMFDLRSRRENPGPESDPRKGRDRQRPSDARETKEDLKSQPDLRQVKEKVRNDEIAIQSESLVEYKERNQRRDDVLQVPELYDVLLPKLRVRIVFGSSFKPRKSTGRQWSMTQSWLKIKMNTNENEV”, the protein production entry is “failed”.

With “MGAMHVLTLDLAPVTPKDAPLLHRVFHLSPSYFALIGMELPTLEDVVRDLQTLEVDPRRRAFLLFLGQEPVGYLDAKLGYPEAEDATLSLLLIREDHQGRGLGRQALERFAAGLDGVRRLYAVVYGHNPKAKAFFQAQGFRYVKDGGPTLTWYVRPL”, the protein production result is on record as “not failed”.

As to “MGANEDQEMELEALRSIYEGDNSFRELSPVSFQYRIGEDGDPKAFLIEVSWTETYPQTAPVISMNAFFNNTISSAVKQSILAKLQEAVEVNLGTAMTYTLFEYAKDHKEQFMENHHPGNSATPVANIISVETPTTAPSSKKKEKKEQLSKAQKRKLADKTDHKGELPRGWNWVDVVKHLSKTGSKDDE”, the protein production entry is “failed”.

Turning to “MGAQKKPAAAKVREDSEDLSRQRLQAILLADSFTTQFRSITLERPKVLLPIVNIPMIDYTLAWLESAGIEEVFVFCCAHSSQIIDYLKKSEWYTRPNPNLLVRTIVSHNSTSVGDALRYIYEQQTETSQIQGDFVLVSGDTVSNMPLADLIQQHRDRKKKDEKAIMTMVFKKQSRLGIGSDQLFVAVDPLTKQLLHYEECNSRGGDFCLDKSLLDSTVLCSDMQDCYIDICSPEVLSLFEDNFDYQHMRRHFVNGLLVDDIMGYKIFTHEIQSSCYAARIDNLRSYDTVSKDIIQRWTYPYVPNIDFSGNRPVKLGRRGIYRASDAVQSHTADVGASTVIGYGTKIGNGGKIYNSVIGNGCCIGSNVVIQGSYIWNNVTIEDGCEIRNAIVCDGVKVRAGAVLQPGVVLSFSVVVGRDFVVPAYSKVSLLQQPTTEDSDEELEYADSSSGTADHSSGLNNLQIESKASELGPDGAGYIWEICDSAHDEEWKHSVVPIPMDKLADITGAMDDDDIEDDIVVPPSGELKSDTDIINTDANDSYGDFEREVEEEFLSAVEKDNKADIVIPLINSHRLAYNMDSADCAGAVFYSMMRLAVKSPHNSATELYRNAMGVITKWKGVLGFYLKQTDAQIEVIMKFEEMCQESEELSPLFAKLLPFLYDKDVVQEDAILRWGEEKAGADDCDKVYLNKCESFIKWLKEASEEEEEDS”, the protein production result is “failed”.

Turning to “MGARTPPCGREIVRVLPSERLISGNGEGAPLPDSHSELPPVIRRTEFVAYALAGLLLIAVIGVLYFAKAFFLPVVMAVVAGTMLSPAASFLERRGVPRALGAVLIVTAVTTVVAFVVALIAVPAMEWSSRLPELGAQLKEKLHVFDRPLALWKELQTMVGGSEGLPSLPLPKAEWVQPTLEFLSPTFAEFLLFFATLILFIASWRDLRRALIMNFGDRDARLRTLRILNEIEVHLGNYLLTVTVINIGVGVATGIICAITGMPNPAGLGALAAALNFIPIIGPIAMFIVLIVVGLVAFPTLGGGLMAGLAFGGITFLEGHFVTPTIIGRRLSLNALAVFIALAFWTWLWGPMGAFLSSPLLIVGLILKEHLLPENSPQLPQA”, the protein production entry is on record as “failed”.

With “MGASTFWIITIVFCIAIYFLDKFLRKKLNMPKGGFWGYKKHVNSLHKKLEIGLLFIYLITSFIFIFKFESINIAYVIFTYLGGTLILRALMEWKYDRESKEYIFSVIGVFTFIFMTSILFYFFPPAV”, the protein production result is “failed”.

Turning to “MGCVFTNFRLRRSQTPKAKTPMIFEKQDYQQECIYNIITLLDGFDFKRHDALNLKDCLNQFHAACEIPVKNVSGKLNVDVLMETGTGKTFTYLNLIFALHKAYGQNKFIIFVPRKAILESVKQNIRLTKDYFYLEFKRHLKTYTYEGVKSPSNIINHYIKNQDELSVLLLTNSAIDKEGNILNKNSENLFNTKSIFENIADLKPISIIDEPHLLKGEAFGKYFGKIGALYFRFGATFAKEKEHALSNVAFCLDSISAFRNYLVKQIRIHSVMQDAQSPFLLNADSKSAKIAFYKAGILKQITLSKGEDLGKINASFNGVSLVKTAKDKAYLSNGATLEKASYKLAQDEISALLEKAIDLHFEKEAFLFDQNIKALSLFFIPKIEDFRQIDNKGTPFIKTEFERLYKLKRASILARENLSPSYKEYLKRDFDESGNLRVHQGYFSGDSVALNKGKKESKKEDIEANDIKMILSEKEKLLSFQTPLRFIFSVWALQEGWDNPNIFTLIKLANSTSETSRHQQVGRGLRIAINQEGKRVTHGFLKGNDNAFYKINYLDMLVSGEEVGFIEGLQKEIEASSFIGGGNALDREDLAKLGLNEREINKLFVELENSNALEFDETNNAYKIIAPICETMQNNEERIKDFLSDEEYHAVLSAFKMAENPTNKRDQIINANQPQEKVKIRQNLAKEFKELWQTINAQSQLSYQNIQKTKLIESIAKAFNESHVSAEVIKFESKRYDPQTNRIITEQSSTLKIRDYANALQKEINALLLDFAKDERLPLKFTLELYNALNKEHFTNSPKKAFKLLKGIIKDKLHENLLSCVSYGFCQNAFSNTAFDKTDPLYCEDGSPKNEIEKHKIGKYKSAQTPSPNYLYETIIYDSKIEEEVSEEGVQTLEGKSIEVFAKLPKFKIPTPYKNYEPDFAYLLKDEKGAKIFFVCETKGYEKESDIPPDEKRKIEYAKKFFETLSQNLKNAKKEIRVVFATRINKQDLFNTLKNALKETP”, the protein production entry is “failed”.

With “MGDEHSLIPKQIGVVPSAGFLNVEVFERPCPEPNIQPWDIPYVHYPKPKTYSSSNGEIFSVKDRRANVSTIFETLDKVYNLDWLSSASKNECTSAVGLKWMLNQAEILARYKPLINTSLLIPDLKQVQEMTSKALAYFNTTRHIFLYYEDVVKNRTKLDDVQEFLKVPKLDLKSRQVKIHHGPLSQHVQNWEEVQKTLKGTGFENFLLEDYRR”, the protein production entry was “failed”.

Consider “MGDFIGSVWWMIVSLGVLVTFHEFGHFWVARRCGVKVLRFSVGFGKPLWMRRDRHGTEFVVAAIPLGGYVKMLDEREGDVHPAEQDQAFNRKTVWQRIAIVAAGPIANLLLCMAMLWAMFVVGKQDYSATVGRADGLAAEAGLTPGERIVRIDGRSVSSWSDASMQLTTAAMDRRDVRVLTASDTASSSEHTLRLSQLPVGFDERRVAALAGIGWQFMLQPPVIAEVVKGSVADGLLKPGDRIVAIDGQPIRSAEDIIPQVQALGAHGGPGMIEVARGEDRLALEIAPRKSPQGQWMIGVRPAAAPAPEYDSRQQYGLFAAVPAAIRETGRMTADSLGMMKRMLTGQASVKNISGPVTIARAANASAERGLDWFLYFLGLLSLSLAIINLMPIPILDGGHLLYYLIELIKGSPISERAMIAGQYVGLAALAGLMGLAFYNDILGLVPR”, for which the protein production entry is “failed”.
